Biological target: T1, CD22蛋白 (购自义翘神州) (UniProt P20273 20-687)
T1 construct: Bought recombinant protein; also called CD22蛋白抗原
T1 sequence (looked up): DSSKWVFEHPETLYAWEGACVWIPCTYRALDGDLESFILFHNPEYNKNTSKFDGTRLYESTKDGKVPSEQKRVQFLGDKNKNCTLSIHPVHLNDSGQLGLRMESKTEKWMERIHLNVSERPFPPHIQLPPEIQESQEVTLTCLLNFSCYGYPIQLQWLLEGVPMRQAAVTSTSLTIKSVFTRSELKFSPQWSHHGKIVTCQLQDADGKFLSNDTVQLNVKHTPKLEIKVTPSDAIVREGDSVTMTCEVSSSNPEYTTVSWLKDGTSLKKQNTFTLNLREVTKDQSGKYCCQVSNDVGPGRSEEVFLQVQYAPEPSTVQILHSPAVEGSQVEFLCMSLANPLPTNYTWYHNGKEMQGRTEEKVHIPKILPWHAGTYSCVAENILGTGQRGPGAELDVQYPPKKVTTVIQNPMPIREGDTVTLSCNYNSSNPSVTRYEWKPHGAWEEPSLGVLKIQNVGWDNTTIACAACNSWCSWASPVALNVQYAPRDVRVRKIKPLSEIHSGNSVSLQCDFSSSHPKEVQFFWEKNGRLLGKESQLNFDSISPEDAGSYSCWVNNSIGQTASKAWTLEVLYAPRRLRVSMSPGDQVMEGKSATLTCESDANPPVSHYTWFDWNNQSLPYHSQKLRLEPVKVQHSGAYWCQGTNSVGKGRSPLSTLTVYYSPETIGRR
Assay: BLI (OCTET K2), CD22 protein loaded on AHC sensor, 4F6 in solution 500-5.21 nM

Kd: 3.14 nM
B1: 抗CD22的单克隆抗体4F6 (antibody, V domains shown)
VH: EVLLQQSGPELVKPGASVKIPCKASGYTFTDYNMDWVKQSHGKSLEWIGDIDPNNGITIYNQKFKGKATLTIDKSSSTAYMELRSLTSEDTAVYYCARDRYDRGYALDYWGQGTSVTVSS
VL: DIVMTQSPSSLAMSVGQKVTMSCKSSQSLLNSSNQKNYLAWHQQKTGQSPKLLVYFASIRDSGVPDRFIGSGSGTDFTLTINSVQAEDLADYFCQQHYSTPFTFGSGTKLEIK
notes: also called 4F6抗体; CD22单克隆抗体

Source: patent publication CN114702585A (SHENZHEN BINDEBIO TECH CO LTD, dated 2022)
